Experimental data taken from the supplement of paper PMC12764529.
± gives the half width of the 95% confidence interval.

How the values were obtained:
[1] = folding stability dG unfold (combined trypsin and chymotrypsin); higher = more stable
Summary of the method: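 Bayesian fitting of sequencing counts gave K50 for each design. Unfolding free energy followed by setting this against a sequence-predicted unfolded-state K50 and a shared folded-state K50, either per protease or with trypsin and chymotrypsin combined. The designs, under 80 residues and lacking cysteine, were digested in a PA-tagged cDNA display format at 11 threefold-diluted protease concentrations and without protease, and only those with AlphaFold2 dimer inter-PAE above 15 were kept.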

[2] = folding stability dG unfold from trypsin proteolysis; higher = more stable
Experimental: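 Folding stability of de novo designed mini-proteins (<80 aa, no Cys; designed by TrROS, TrMRF, ProteinMPNN and the joint model) was measured by cDNA display proteolysis with trypsin and chymotrypsin. Each protease was used at 11 concentrations in a threefold dilution series plus a no-protease condition. K50 was inferred by Bayesian fitting of sequencing counts, and dG unfold was derived against a sequence-predicted unfolded-state K50 (Tsuboyama et al. method). Sequences shown include variable-length N-terminal GS-type padding (SAGGSAGG...) inside a display construct carrying a PA tag. Rows were kept only if the AF2 dimer inter-PAE was >15, to exclude likely homo-oligomers.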

Sequence | folding stability dG unfold [1] [kcal/mol] | folding stability dG unfold [2] [kcal/mol]
SAGGSAGGSMTVKKIEIKPPPGGTDLATITTEKVDPSTGKPSLSTSTVTVPKNNPEAIEKFLSSAGGSAGGS [r12_691_JUSTAS] | < -1 | -0.257 ± 0.18
SAGGSAGGSNIVSARPLGDLVLIEIEPGGKPLRAVVRPSELPPNPPIPPGLSYRVEPGSVSDYSAGGSAGGS [r12_1005_TrMRF] | < -1 | -1.09 ± 0.28
SAGGSAGGSPPFTITFIDENGKGVKKINLPFDPKKPSVLPLSEEEIKALKEELGPEAKSITLSSAGGSAGGS [r12_514_JUSTAS] | < -1 | -0.658 ± 0.16
SAGGSAGGSQKIEITKVEPERGPNGRPYHRVNIEIVIPDGKPRKFDFYFDDPEDLENMTIELPSAGGSAGGS [r20_130_TrROS] | -0.88 ± 0.19 | -0.861 ± 0.17
SAGGSAGGSSMPLLTKETSESYDPVNNTKTTTERIEEPGSGKFVFTKTTTTYPDGTVTTTLVESAGGSAGGS [r12_115_JUSTAS] | -0.652 ± 0.35 | -0.336 ± 0.42
SAGGSAGGSSMPPGWSVTSETVVESIIETPNGPIIKVTTSKTTVTPPNGPPSTYTTTSEDPLGSAGGSAGGS [r12_544_JUSTAS] | < -1 | -0.314 ± 0.13
SAGGSAGGSSSVMTVTVEYPTPAPPVVRRETVEVPDPDGSLSEEELKEKYSPPDAVVTEVVRESAGGSAGGS [r12_611_JUSTAS] | < -1 | -1.07 ± 0.34
SAGGSAGGSTIREILDALPPGREIDVERHPNNGHYEISIQNPNGPNPTFQIDDPVTKEIAEWISAGGSAGGS [r12_174_TrROS] | -0.0634 ± 0.11 | 0.65 ± 0.031
SAGGSAGGSTTSTIKVTLENPSGSPLKLETATITTDPVAGTSTLTVTVPGTGETKFVGTNPNLSSAGGSAGG [r6_330_JUSTAS] | 0.107 ± 0.061 | 0.713 ± 0.052
SAGGSAGGSVKVTTEPLPNGERLVTVTAYLKSKPYPVLMPYPASATPEQVKETALRIEKELEKSAGGSAGGS [r12_69_TrMRF] | < -1 | -0.999 ± 0.49
SAGGSAGGSYPIFDKEKGKLDPGPPEKELDVVIKVKKDGKWYPIDLKLSKSDLIRFVKELEKDSAGGSAGGS [r20_148_TrMRF] | < -1 | -0.698 ± 0.24
SAGGSAGGSYSKNGQPPPTREIEIIILVEDPEEAENKADELSEMLGMPIKVEIIPEEDAKKMISAGGSAGGS [r12_766_TrROS] | 0.27 ± 0.86 | 0.0437 ± 0.24
SAGGSAGGTIIDRIKELFGPGMKINIQEHPSEPYYRIRIKNPGFGQKREIHVPPDSIEDILDQISAGGSAGG [r6_612_TrROS] | 0.202 ± 0.36 | 0.538 ± 0.33
SAGGSAIRIEPDEDGYIKIEKPSPPGEPASELIEELKDFFPNWEVETHPHPNGRAEIIFRIPPDQFSAGGSA [r15_1047_TrROS] | -0.132 ± 0.15 | 0.244 ± 0.077
SAGGSAKPVEVELPDGIEIYYPKDRMYIEINLPNGRPIKIPFEFDDPNDPERALDKARDLVKKLPWSAGGSA [r15_748_TrROS] | < -1 | -0.577 ± 0.41
SAGGSAMDAEQIEEKIKEAMQDHGHEVEVEVQRDPNNTVVIQVESGPGMDKDRIQEALQEKFGVKISAGGSA [r15_807_TrROS] | < -1 | -0.793 ± 0.1
SAGGSAMKVATLKVGGVDHTVEITPLPDGSYPVTTTAEEGGETTTTVVPKSEVKKLEDLPPEYRLLSAGGSA [r15_629_JUSTAS] | < -1 | -0.414 ± 0.49
SAGGSAMKVKSIHWQRHGDRPMVRIKIQNPDGKKRERNIPMDDPEKFKKEAKELAKEGKIKEIEPYSAGGSA [r15_575_TrROS] | < -1 | -0.42 ± 0.81
SAGGSAMPKPKVEILKVEKTEDGTVKVPVKVEVTFEDGSKETVPATVTFEVEEGKPLGPEALKEAISAGGSA [r15_836_TrMRF] | < -1 | -0.377 ± 0.11
SAGGSAMTLEELKGMPIRSWWPGGQKIEMPIKKIDLNDPMFEIKFGGEPIKIPFNHPMRIEIQPPKSAGGSA [r15_355_TrROS] | -0.64 ± 0.27 | 0.0637 ± 0.052
SAGGSANMREVEIPMTPNDLEEALEEVEDAPPGRNVSVNMTNPEEGKPYPIKIRVNENGKLTEIEFSAGGSA [r15_228_TrROS] | -0.179 ± 0.27 | 0.501 ± 0.077
SAGGSAPPASAPGVVEEVEAEVPVDVPEVARLTGRPPRPGERYRVRVVRRVYPDGRVETDVYIEPGSAGGSA [r15_91_TrMRF] | -0.252 ± 0.14 | 0.328 ± 0.064
SAGGSASPEELAERVAKEIEEKYPVEVTEIRVEEVSEDEVVLSMTYRKPLPGGETEVENRTVTLPQSAGGSA [r15_276_JUSTAS] | -0.404 ± 0.46 | 0.162 ± 0.26
SAGGSAVPKSDPVIRIKVKYPSNPQVITVPRSEIVEMEVGPPENIMTIKNPKTGKEYPATLLEILASAGGSA [r15_495_JUSTAS] | < -1 | -0.531 ± 0.23

Sequence | folding stability dG unfold [1] [kcal/mol] | folding stability dG unfold [2] [kcal/mol]
SAGGSITLEIELPNGAKITVTIEYDEETGTVTIEAEITLPNGTVIRIKATINKDGTITIEKIEVFKPSAGGS [r16_213_TrROS_Hall] | > 6 | 4.82 ± 0.69
SAGGSLVTELIENNPEFQALLESGTTLKVTFPGGLSGEIEVKNKSPEEIEKAILARNPGPVEIEITGSAGGS [r16_655_JUSTAS] | -0.192 ± 0.2 | 0.384 ± 0.11
SAGGSMEIPLGETIPIFFDDVIIEIEPETHEIHVIAEDSEKALELIKNLPFPIPAGEVKELSPEEFSAGGSA [r2_418_TrMRF] | -0.364 ± 0.21 | 0.352 ± 0.042
SAGGSNNDNQPEPKVPYMEITINIPVNYNPNQSEEDRKRQVQEFIEELKDMYIPFPNGYPIRIDVMSAGGSA [r2_149_TrROS] | -0.554 ± 0.49 | 0.149 ± 0.13
SAGGSNPGDPEQVPKVKIKITYPDNGKEFTIPVEELRNGPIEEAVSEIANEARERYPGHPLRIEPVSAGGSA [r2_392_TrROS] | < -1 | -0.836 ± 0.41
SAGGSPYRIKFEFPNGPKFEFPVKITEIQPPNGNLYANITAQDDGKPHELMFPAPNIRPVEIEPPPSAGGSA [r2_319_TrROS] | -0.414 ± 0.66 | -0.796 ± 0.69
SAGGSSLDEKIKQAVEEGKVPTEIEFTDPSNDLKTRYLVTVKSVLPGSYEVEVEEEIFDPDNPVLVSAGGSA [r2_420_JUSTAS] | < -1 | -1.07 ± 0.27
SAGGSTLDELIDAIKKAAKKGKEPVEIEFPNPNGGMIKINPDGSIETFPPNGEPQRFKIPLDDLKISAGGSA [r2_97_TrROS] | -0.781 ± 0.25 | -0.568 ± 0.11
SAGGSYRIEIEDIDPKPQWRPNPNGEWEPRPTLTIEVKIERNPDEMPEKEKQKIEEQAERIAKKFFSAGGSA [r2_40_TrROS] | < -1 | -0.436 ± 0.4
SAGGTTTESVSEDSTDNGEYVTTTTTTDPVGPSTVVTTTTTTTPADGTTTTTTTTYTVPPGAPASAVVSAGG [r13_3_JUSTAS] | -0.00338 ± 0.16 | 0.354 ± 0.052
SAGGTVKVTVEVRDEETGETVTVEVEVEPAPAPPVVVLPAEDLEKLRELGFPENAVLDEETNELVIFSAGGS [r16_194_TrROS_Hall] | -0.204 ± 0.24 | 0.537 ± 0.085
SAGMDPNEKREVVVELEFEVPDPSNPEGGSVPIRVTLKATGKGTEEEAEELKKKAEEEAREKVEKGELLSAG [r5_532_JUSTAS] | -0.287 ± 0.56 | 0.687 ± 0.15
SAGMEVTVTDPIPLDPTPDGVPDVKPELVEERAKAAGFTDEIESVDTTPKPDSVTTTVTHPTATLTAGSAGG [r19_398_JUSTAS] | < -1 | -0.201 ± 0.082
SAGMKKEKPKETVTITLKNGKKIEIVKTDDSIKIFITDKNGKKRELTVKGLSLEEILKKLEELGFEVEPSAG [r5_613_TrROS_Hall] | 0.353 ± 0.2 | 0.776 ± 0.082
SAGMKVEVVERKGPDGRLVRVVKETTITPVPGPAVAEANGAPLTPEDEKVVTVTTTVLDPEGKVLETVDSAG [r5_128_JUSTAS] | < -1 | -0.903 ± 0.43
SAGMSTSGPIFVPEGPPAIYISYPKPNVKFVVPVSEGIEAVKKRAEEPGLNPVIIKVVETPPGVPVTLSAGG [r19_386_JUSTAS] | < -1 | -0.988 ± 0.34
SAGMVVKVTVITEDEKPIEVYLPVKDPEKYPPEKVEEAAKEIAKKLEEEGIPVKKVSVEPIAPKPGLLSAGG [r19_334_TrMRF] | 0.0993 ± 0.4 | 0.544 ± 0.087
SAGMYIEGSLSSPEEAPVVAVPFPGPEKLLLAPLAVGLEEIREALEEEGFEPVEIRVAETEPGVPLDLSAGG [r19_386_TrMRF] | -0.694 ± 0.24 | 0.211 ± 0.024
SAGPGNWFIMIFINIEIKLETVPDPDGKPWLKITISIKFFVMIVRLPPDGKARMEMFPITIKFTFTIPLSAG [r5_428_TrROS] | > 6 | 4.17 ± 0.29
SAGWKLKIESPNGAEIEINPESGMIDVKNPDNGQPWSVMIPPENPGEINIFNPGDGEPLQPFKIDEIEPSAG [r5_761_TrROS] | 0.111 ± 0.41 | 0.337 ± 0.23
SAIRGLPPEEIEKAVKKLAKEGNVEIEIKPFTMRVYPPDGGQQPYQYYQIEIYNPDNGKPIEDKIKKLFSAG [r14_628_TrROS] | < -1 | 0.167 ± 0.25
SAITIMIPPNQTLEEIADELGFPGIKDVKHEPFEPGYYPATFEFPGDPDREIEIMFNPEPDWMMVEVEDSAG [r14_713_TrROS] | 0.0271 ± 0.13 | 0.809 ± 0.054
SAMEVTVTPLPDGTTRVTLPDGVEITHPAPGTGEPVLVEVTEVPGTGTYRITIRSPAGGEELRELLVPVSAG [r14_975_JUSTAS] | 0.443 ± 0.091 | 0.986 ± 0.03
